Data: publication PMC5522446, “The N-terminal dimerization is required for TDP-43 splicing activity” (Scientific Reports, 2017)
Changes are numbered by the printed parent chain. One block for each molecule: values may come before it.

Key:
[1] = biological target: TDP(1–77)-C39/C50S (human) (UniProt Q13148); experiment: SEC; protein at 10 µM; Superdex-200 Increase 10/300 GL; Buffer A; room temperature
[2] = biological target: TDP(1–77)-C39/C50S (human) (UniProt Q13148); experiment: SEC; protein at 50 µM; Superdex-200 Increase 10/300 GL; Buffer A (25 mM Tris-HCl, pH 8.0, 150 mM NaCl); room temperature; apparent MW from standard proteins
[3] = biological target: TDP(1–77)-C39/C50S (human) (UniProt Q13148); experiment: SEC; protein at 500 µM; Superdex-200 Increase 10/300 GL; Buffer A; room temperature
[4] = biological target: TDP(1–77)-C39/C50S (human) (UniProt Q13148); experiment: SEC; protein at 250 µM; Superdex-200 Increase 10/300 GL; Buffer A; room temperature
[5] = biological target: the molecule itself; experiment: SEC; protein at 10 µM; Superdex-200 Increase 10/300 GL; Buffer A; room temperature
[6] = biological target: the molecule itself; experiment: SEC; protein at 250 µM; Superdex-200 Increase 10/300 GL; Buffer A; room temperature
[7] = biological target: the molecule itself; experiment: SEC; protein at 50 µM; Superdex-200 Increase 10/300 GL; Buffer A (25 mM Tris-HCl, pH 8.0, 150 mM NaCl); room temperature; apparent MW from standard proteins
[8] = biological target: the molecule itself; experiment: SEC; protein at 500 µM; Superdex-200 Increase 10/300 GL; Buffer A; room temperature
[9] = biological target: the molecule itself; experiment: SEC; protein at 500 µM treated with 5 mM DTT; Superdex-200 Increase 10/300 GL; Buffer A; room temperature
[10] = biological target: the molecule itself; experiment: SEC; protein at 50 µM; Superdex-200 Increase 10/300 GL; Buffer A (25 mM Tris-HCl, pH 8.0, 150 mM NaCl); room temperature; apparent MW from standard proteins; remark: listed apart in the source
[11] = biological target: the molecule itself; experiment: SEC; series of different protein concentrations (Fig. S1, Fig. S2D,E); Buffer A; room temperature

stoichiometry N [1]: 1.7
stoichiometry N [2]: 1.7
stoichiometry N [3]: 1.8
stoichiometry N [4]: 1.8
Molecule: TDP(1–77)-C39/C50S (from UniProt Q13148 1-77) (domain or fragment)

B1: TDP(1–77) (domain or fragment, human, UniProt Q13148 1-77, looked up)
chain: MSEYIRVTEDENDEPIEIPSEDDGTVLLSTVTAQFPGACGLRYRNPVSQCMRGVRLVEGILHAPDAGWGNLVYVVNY
notes: TDP-43, human, residues 1-77; pET22b, Nde I/Xho I; C-terminal His6 surmised; Printed theoretical MW 9.6 kDa; PDB 2N4P (cited) is His6-TDP(1–77); also called N-terminal 77-residue construct; wild-type TDP(1–77); source: E. coli BL21 (DE3), purified (Ni2+-NTA, SEC)
stoichiometry N [5]: 1.7
stoichiometry N [6]: 2.1
stoichiometry N [7]: 1.8
stoichiometry N [8]: 2.3
stoichiometry N [9]: 2.4

B2: TDP(1–89) (domain or fragment, human, UniProt Q13148 1-89, looked up)
chain: MSEYIRVTEDENDEPIEIPSEDDGTVLLSTVTAQFPGACGLRYRNPVSQCMRGVRLVEGILHAPDAGWGNLVYVVNYPKDNKRKMDETD
notes: TDP-43, human, residues 1-89; pET22b, Nde I/Xho I; C-terminal His6 surmised; Printed theoretical MW 11.1 kDa; also called TDP-43 NTD; source: E. coli BL21 (DE3), purified (Ni2+-NTA, SEC)
stoichiometry N [10]: 2.4

B3: TDP(1–89) Cys mutant (Cys39 and Cys50 to Ser) (domain or fragment, human, UniProt Q13148 1-89, looked up)
chain: B2 chain with C39S, C50S
notes: TDP-43, human, residues 1-89 with Cys39 and Cys50 mutated to Ser; pET22b, Nde I/Xho I; C-terminal His6 surmised; also called TDP(1–89) mutant; source: E. coli BL21 (DE3), purified (Ni2+-NTA, SEC)
binding result [11]: binds
